Assay [1] relates to K562 cells. Description: Nuclear (DNA) segmentation apoptosis assay in transfected K562 cells. In kind it is cell-based, human. The settings on record: 48 h, vs EGFP control. The protocol: CC^mut3 was then tested for its ability to induce apoptosis in K562 cells. Apoptosis was observed using 3 different methods: 1) nuclear segmentation; 2) induction of the effector Caspase-3/7; and 3) 7AAD/Annexin V staining.
Nuclear segmentation analysis was performed as previously described (16). Briefly, immediately prior to cellular analysis, 2-well live cell chambers were treated for 15 min with poly-L-lysine (Sigma-Aldrich, St. Louis, Mo., USA), to allow cell adhesion in the wells. Forty-eight h following transfection, the transfected K562 cells were transferred to the pretreated 2-well live cell chambers. Cells were incubated for 15 min at 37° C. following the addition of 0.3 μL Hoechst H33342 nuclear stain (Life Technologies, Carlsbad, Calif., USA). Cells were then imaged using an inverted fluorescence microscope (Olympus IX701F, Scientific Instrument Co., Sunnyvale, Calif., USA) equipped with an F-view Monochrome CCD camera. Fields of view were selected based on EGFP fluorescence when viewing using a 40× oil immersion objective. Nuclei from cells that were positively transfected (positive for EGFP fluorescence) were categorized as either healthy (round or kidney-shaped nuclei) or segmented (punctate staining of nuclei), and the percentage of cells with segmented DNA was calculated (n=3 in replicate).

The test system of assay [2] is K562 cells. Description: Cell proliferation (trypan blue) of protein-treated K562 cells. The settings on record: proteins 30 μM or imatinib. It counts as cell-based, human. The procedure: Independent treatments were tested three times (n=3).
Assay [3] deals with Ba/F3 cells expressing BCR-ABL1E255V. Description: Annexin V/7-AAD apoptosis assay in Ba/F3 BCR-ABL1 E255V cells. In kind it is cell-based, mouse. The following applies: 72 h, CCmut3 vs EV. The protocol: For analysis of apoptosis and cell death, cells were pelleted and resuspended in Annexin V-binding buffer (BD Biosciences), stained with anti-Annexin V-APC (BD Biosciences or Life Technologies) and 7-AAD (BD Biosciences or Life Technologies) and analyzed on a BD FACSCanto flow cytometer. In addition to the APC and 7-AAD channels, GFP- and mCherry-positive cells were also recorded.
For analysis of apoptosis and necrotic cell death, cells were pelleted and resuspended in Annexin V-binding buffer (BD Biosciences), stained with anti-Annexin V-APC and 7-AAD (BD Biosciences or Life Technologies) and analyzed on a BD FACSCanto flow cytometer. In addition to the APC and 7-AAD channels, GFP- and mCherry-positive cells were also recorded.

For assay [4] the test system is unchanged. Description: Proliferation of transfected Ba/F3 BCR-ABL1 E255V cells (MTS assay). The settings on record: CCmut3 vs EV; for proliferation, in words: MTS assay at 72 and 96 h. It counts as cell-based, mouse. The protocol: Stable recombinant Ba/F3 cells transduced with wild type p210 BCR-ABL1 (Daley, G. Q., et al. (1991) Proc. Natl. Acad. Sci. U.S.A. 88, 11335-11338), the kinase domain mutants p210^T315I p210^[…], or the compound mutant p210^E255V/T315I were as previously described (La Rosee, P., et al. (2002) Cancer Res. 62, 7149-7153; O'Hare, T., et al. (2004) Blood 104, 2532-2539). These cells were cultured in RPMI with 10% FBS, 1% penicillin, streptomycin, glutamine, and 0.1% gentamycin (RPMI1640). Additionally 0.1% MycoZap™ (Lonza Bio, Basel, Switzerland) was added to prevent mycoplasma contamination. The non-transduced parental Ba/F3 cell line was grown in RPMI1640 supplemented with 20% WEHI-3B conditioned medium as a source of murine IL-3 (Dexter, T. M., et al. (1980) J. Exp. Med. 152, 1036-1047). Ba/F3 cells were transfected with plasmid DNA using the Amaxa nucleofection system (Lonza Bio), following the manufacturer's instructions. Cells were sorted on a BD FACSAria cytometer (BD Biosciences, San Jose, Calif.) for double-positive cells expressing mCherry and GFP then returned to RPMI1640 for subsequent experiments.
Cell proliferation was assessed using the CellTiter 96® AQueous One Solution Cell Proliferation Assay (MTS assay, Promega) according to manufacturer instructions. Briefly, 5,000 viable cells were added to a single well in 96-well plate in 100 μL RPMI1640. Three independent samples were seeded in duplicate for each time point. […] In some experiments, cell proliferation was assessed using a Neubauer chamber and trypan blue dye exclusion.
Stable Ba/F3 cells transduced with native (p210) BCR-ABL1, the kinase domain mutants BCR-ABL1T315I, BCR-ABL1E255V, or the compound mutant BCR-ABL1E255V/T315I were cultured. […]
Cell proliferation was assessed using a […] viability assay (MTS assay) utilizing CellTiter 96® AQueous One Solution Cell Proliferation Assay (Promega) according to manufacturer instructions. […] Cell growth was assessed by MTS assay at 72 and 96 h. […] In patient sample experiments, cell proliferation was assessed by trypan blue exclusion.
Background: Tetrazolium assays rely on reduction of a dye to a coloured formazan, in cell work by metabolically active cells.

Several values for one entry are separate records, joined by “and”; a condition that tells them apart may be missing. Equal entries are not always repeated. Entries after “also recorded” stand apart in the source; their conditions may differ.

B1: CCmut3: modified Bcr-Abl coiled-coil domain (residues 1-72) with mutations C38A, K39E, S41R, L45D, E48R, Q60E (protein)
chain: MVDPVGFAEAWKAQFPDSEPPRMELRSVGDIEQELERAEARIRRDEQRVNQERFRMIYLETLLAKEKKSYDR
Consider B1, for which the “induction of apoptosis (nuclear/DNA segmentation)” value with K562 cells [1] is “increase in apoptosis; also recorded: significantly induced apoptosis”; with K562 cells [1] (listed as CC^mut3), “induces apoptosis; also recorded: causing apoptosis via nuclear segmentation”. The cell proliferation entry in the assay with K562 cells [2] was “ineffective at reducing cell proliferation and colony forming compared to untreated cells”. Besides, the “apoptosis, in words” value in assay [3] is listed as “increase of apoptosis”; in assay [3] (listed as CC^mut3) it was “significant shift toward the apoptotic fraction”. For the same molecule, the increase in apoptosis in assay [3] is 6-8 fold and > 5 fold; in assay [3] (listed as CC^mut3) it was 6-8 fold. The reduction of proliferation result in assay [4] (96 h, MTS assay) is listed as “approximately 3 fold”. Further, the “proliferation, in words” value in assay [4] was “significant reduction of proliferative capacity; also recorded: lesser, yet significant difference was noted at the 72 h time point”; in assay [4] (listed as CC^mut3), “significant reduction”.

For the origin of these results see patent US10494417B2, “Peptide inhibitors of BCR-ABL oligomerization” (University of Utah Research Foundation, priority 2014, dated 2019).
